Measurements from the RNAGym collection of RNA variant scans (doi:10.7554/elife.80360).

B1: HDV Ribozyme (parent)
chain: GGCCGGCAUGGUCCCAGCCUCCUCGCUGGCGCCGGCUGGGCAACAUUCCGAGGGGACCGUCCCCUCGGUAAUGGCGAAUGGGACCCA

Variants of: B1
Assay: self-cleavage, relative activity (ratio to wild type); higher = more cleavage; co-transcriptional

Variant	self-cleavage
GGCCGGCAGGGUCCCUGCCUCCUCGCUGGCGCCGGCUGGGCAACAUUCCGAGGGGACCGUCCCCUCGGUAAUGGCGAAUGGGACCCA	1.14
GGCCGGCAUGGUCCCAGCCUCCUCGCUGGGGCCGGCUGGGUAACAUUCCGAGGGGACCGUCCCCUCGGUAAUGGCGAAUGGGACCCA	0.0702
GGCCGGCAUGGUCCCACCCUCCUCGCUGGCGCCCGCUGGGCAACAUUCCGAGGGGACCGUCCCCUCGGUAAUGGCGAAUGGGACCCA	0.0723
GGCCGGCAUGGUCCCAGCCUCCUCGCUGGCGCCGGCUGGGCAACAUUCCGAGGGGACCGUCCCCUCGGUUAUGUCGAAUGGGACCCA	0.499
GGCCGGCAUGGUCCCAGCCUCCUCGCUGGCGCCGCCUGGGAAACAUUCCGAGGGGACCGUCCCCUCGGUAAUGGCGAAUGGGACCCA	0.237
GGCCGGCAUGGUCCCAGCCUCCUCGCUGGCGCCGACUGGGCAACAUUCCGAGGGGACCGUCCCCGCGGUAAUGGCGAAUGGGACCCA	0.554
GGCCGGCAUGGUCCCAGCCUCCUCGCUGGCGCCGGCAGGGCAACAUUCCGAGGGGACCGUCCCCUCGGGAAUGGCGAAUGGGACCCA	0.369
GGCCGGCAUGGUCCCAGCCUCCUCGCUGGCGCCGGCUGGGCAACAUUCCAAGGGGACCGUCCCCUCGGUAAUGGCGAAUGAGACCCA	0.415
GGCCGGCAUGGUCCCAGCCUCCUCGCUGGCGCCGGCUGGGCAACAUUCCGAGGGAACCGUCCCCUCGGUAAUGGCGAAUGGGACCUA	0.989
GGCCGGCAUGGUCCCAGCCUCCUCGCUGGCGCCGGCUGGUCAACAUUCCGAGGGGACCGUCCCCUCGGUAAUGGCGAAUCGGACCCA	0.0692
GGCCGGCAUGGUCCCAGCCUCCUCGCUGGCGCUGGCUGGGCAACAUUCCGAGGGGUCCGUCCCCUCGGUAAUGGCGAAUGGGACCCA	0.758
GGCCGGCAUGGUCCCAGCCUCCUCGCUGGCGCCGGCUGGGCAACAUUCCGAGGGGAACGUCCCCUCGGUAAUGGCGAGUGGGACCCA	0.63
GGCCGGCAUGGUCCCAGCCUCCUCGCUGGCGCCGGCUGGGCAACAUUCCGAGGGGACCAUCCUCUCGGUAAUGGCGAAUGGGACCCA	1.13
GGCCGGCAUGGUCCCAGCCUCCUCCCUGGCGCCGGCAGGGCAACAUUCCGAGGGGACCGUCCCCUCGGUAAUGGCGAAUGGGACCCA	0.0426
GGCCGGCAUUGUCCCAGCCUCCUCGCUGGCGCCGGCUGGCCAACAUUCCGAGGGGACCGUCCCCUCGGUAAUGGCGAAUGGGACCCA	0.313
GGCCGGCAUGGUCCCAGCCUCCUCGCUGGCACCGGCUGGGCAACAUUCCGAGGGGACCGUCCCCUCGUUAAUGGCGAAUGGGACCCA	0.463
GGCCGGCAUGGUCCCAGCCUCCUCGCUGGCGCUGGCUGGGCAACAUUCCGAGGGGACCGUCCCCUCGGUAAUGGCGAAUGGGACCCC	0.745
GGCCGGCAUGGUCCCAGCCUCCUCGCUGGCGCCGGCUGGGCAACAUUCCGAGGUGACCGUCCCCUCGGUAAUGGCGAAUGGGAUCCA	0.808
GGCCGGCAUGGUCCCAGCCUCGUCGCUGGCGCCGGCUGGGCAACAUUCGGAGGGGACCGUCCCCUCGGUAAUGGCGAAUGGGACCCA	0.0277
GGCCGGCAUGGUCCCAGCCUCCGCGCUUGCGCCGGCUGGGCAACAUUCCGAGGGGACCGUCCCCUCGGUAAUGGCGAAUGGGACCCA	0.0326
GGCCGGCAUGGUUCCAGCCUCCUCGCUGGCGCCGGCUGGGCAACAUUCCGAGGCGACCGUCCCCUCGGUAAUGGCGAAUGGGACCCA	0.623
GGCUGGCAUGGUCCCAGCCUCCUCGGUGGCGCCGGCUGGGCAACAUUCCGAGGGGACCGUCCCCUCGGUAAUGGCGAAUGGGACCCA	0.72

Variant	self-cleavage
GGCCGGCAUGGUCCCAGCCUCCUCGCUGGCGCCGGCUGGGCAACAUUCCGAGGGGACCGUCUCCUCUGUAAUGGCGAAUGGGACCCA	1.02
GGCCGGCAAGGUCCCAGCCUCCUCGCUGGCGCCGGCUGGGCUACAUUCCGAGGGGACCGUCCCCUCGGUAAUGGCGAAUGGGACCCA	0.688
GGCCUGCAUGGUCCCAGCCUCCUCGCUGGCGCCGGCUGGGCAACAUUCCAAGGGGACCGUCCCCUCGGUAAUGGCGAAUGGGACCCA	0.196
GGCCGGCAUGGUCCCAGCCUCCUCGCUGGCGCCGGCUGGGCAACAUUCCGAGGGGACCGUCCACUCGGUAAUGGCGAAUGGGACCCA	0.973
GGCCGGCAUGGUCCCAGCAUCCUCGCUGGCGCCGGCUGGGCAACAUUCCGAGGGGACCGUCCCCUCGGUAAUGGCCAAUGGGACCCA	0.102
GGCCGGCAUGGUCCCAGCCUCCUCGCUGGCGCCGGCUGGGCAACAUUCCGAGGGGACCGUCCGCUCGGUAAUGGCGAAUGGGACCCA	0.764
GGCCGGCAUGGUCCCAGCCUCCUCGCUGGCGCCGGCUGGGCAACAUUCCGAGGGGACCGUCCCCUCGGUGAUCGCGAAUGGGACCCA	0.356
GGCCGGCAUGUUCCCAGCCUCCUCGCUGGCGCCGGCUGGGCAACAUUCCGAGGGGAACGUCCCCUCGGUAAUGGCGAAUGGGACCCA	0.447
GGCCGCCAUGGUCCCAGCCUCCUCGCUGGCGCCGGCUGGGCAACAUUCCGACGGGACCGUCCCCUCGGUAAUGGCGAAUGGGACCCA	0.237
GGCCGGCAUGGUCCCAGCCUCCUCGCUGGCGCCGGCUGGGCAAUAUUCCGAGGGGACCGUCCCCUCGGUAAUAGCGAAUGGGACCCA	0.946
GGCCGGCAUGGUCCGAGCCUCCUCGCUGGCGCCGGCUGGGCAACAUUCCGAGGGGACCGUCCCCUCGGUAAUGGCGAAUGGGACCCC	0.799
GGACGGCAUGGUCCCAGCCUCCUCGCUGGCGCCGGCUGGGCAACAUUCCGAGGGGACCGUCCCGUCGGUAAUGGCGAAUGGGACCCA	0.32
GGCCGGCAUGGCCCCAGCCUCCUCGCUGGCGCCGGCUGGGCAACAUUCCGAGGGGACCGUCCCCUCGGUAAUGGCGAACGGGACCCA	0.133
GGCCGGCAUGGUCCCAGCCUCCACGCUGGCGUCGGCUGGGCAACAUUCCGAGGGGACCGUCCCCUCGGUAAUGGCGAAUGGGACCCA	0.929
GGCCGGCAUGAUCCCAGCCUCCUCGCUGGCGCCGGCUGGGCAACAUUCCGAGGGGACCAUCCCCUCGGUAAUGGCGAAUGGGACCCA	0.38
GGCCGGCAUGUUCCCAGCCUCCUCGCUGGCGCCGGCUGGGCAACAUUCCGAGGGGACCGUCCCCUCGGUAAUGGCCAAUGGGACCCA	0.532
GGCCGGCAUGGUCCCAGCCUCCUCGCUGGCGCCGGCUGUGCAACAUUCCGAGGGGACCGUCCCCUCGGUAAUGGCGAAUGGGACGCA	0.69
GGCCGGCAUGGUCCCAGCCUCCUCGCUGGCGCCGGCUGGGAAACAUUCCGAGGGGACCGUUCCCUCGGUAAUGGCGAAUGGGACCCA	0.76
GGCCGGUAUGGUCCCAGCCUCCUCGCUGGCGCCGGCUGGGCAACAUUCCGAGGGGUCCGUCCCCUCGGUAAUGGCGAAUGGGACCCA	0.739
GGCCGUCAUGGUCCCAGCCUCCUCGCUGGCGCCGGCUGGGCAACAUUCCGAGGGGACCGUGCCCUCGGUAAUGGCGAAUGGGACCCA	0.707
GGCCGGCAUGGUCCCAGCCUCCUCGCUGGCGCCGGCUGGGCAACAUUCCGAGGGGACCGUCCCCCCGGUAAAGGCGAAUGGGACCCA	0.665
GGCCGGCAUGGUCCCAGCCUCCUCACUGGCGCCGGCUGGGCAACAUUCCGAGGGGACCGUCCCCUGGGUAAUGGCGAAUGGGACCCA	0.376

Variant	self-cleavage
GGCCGGCAUGGUCCCAUCCUCCUCGCUGGCGCCGGCUGGGCAACAUUCCGAGGGGACCGUCCACUCGGUAAUGGCGAAUGGGACCCA	0.517
GGCCAGCAUGGUCCCAGCCUCCUCGCUGGCGCCGGCUGGGCAACAUUCCGAGGGGACCGUCCCCUCGGUAAUGGCGAAUGGGACCGA	0.13
GGCCGGCAGGGUCCCAGCCUCCUCGCUGGCGCCGGCUGGGCAACAUUCCGAGAGGACCGUCCCCUCGGUAAUGGCGAAUGGGACCCA	1.03
GGCCGGCAUGGUCCCAGCCUCCUCGCUGGCGCCGGCUGGGCAACAGUCCGAGGGGACCGUCCCCUCGGUAAUGGAGAAUGGGACCCA	0.208
GGCCGGCAUGGUCCCAGCCUCCUCGCUGGCGCCGGCUGGGCAUCAUUCCGAGGGGACCGUCCCCUCGGUCAUGGCGAAUGGGACCCA	0.554
GGCCGGCAUGGUCACAGCCUCCUCGUUGGCGCCGGCUGGGCAACAUUCCGAGGGGACCGUCCCCUCGGUAAUGGCGAAUGGGACCCA	1.07
GGCCGGCAUGGUCCCAGCCUCCUCGCUGUCGCCGGCUGGGCAACAUUCCGAGGGGACCGUCCCCUCGGUAAGGGCGAAUGGGACCCA	0
GGCCGGCAUGGUCCCAGCCUCCUCGCUGGCGCCGGCUGGGCAACAUUCCGAGGGGACCGUCCCCACGGUAACGGCGAAUGGGACCCA	0.511
GGCCGGCAUGGUCCCAGCCUCCUCGCUGGCGCCGGCUGUGCAACAUUCCGAGGGGACCGUCCCCUCGAUAAUGGCGAAUGGGACCCA	0.841
GGCCGGCAUGGUCCCAGCUUCCUCGCUGGCGCCGGCUGGGCAACAUUCCGAGGGGACCGUCCCCUCGGUAAUGGCGAAUGGAACCCA	0.0511
GGCCGGCAUGGUCCCAGUCUCCUCGCUGGCGUCGGCUGGGCAACAUUCCGAGGGGACCGUCCCCUCGGUAAUGGCGAAUGGGACCCA	0.327
GGCCGGCAUGGUCCCAUCCUCCUCGCUGGCGCCGGCUGGGCAACAUUCCGAGGGGACCGUCCCCUCGGUAAUGGCGUAUGGGACCCA	0.104
GGCCGGCAUGGUCCCAGCCUCCUCGCUGGCGCCGGCUGGGCAACAUUCCGAGGGGAACGUGCCCUCGGUAAUGGCGAAUGGGACCCA	1.05
GGCCGGCAUGGUCCCAGCCUCCUCGCUGGCGCCGGCUGGGCACCAUUCGGAGGGGACCGUCCCCUCGGUAAUGGCGAAUGGGACCCA	0.287
GGACGGCAUGGUCCCAGCCUCCUCGCUGGCGCCGGCUGGGCAACAUUCCGAGGGGACCGUCCCCUCGGUAUUGGCGAAUGGGACCCA	0.385
GGCCGGCAUGGUCCCAGCCUCCUCGCUGGCGCCGGCUGGGGAACAUUCCGAAGGGACCGUCCCCUCGGUAAUGGCGAAUGGGACCCA	0.562
GGCCGGCAUGGUCCCAUCCUCCUCGAUGGCGCCGGCUGGGCAACAUUCCGAGGGGACCGUCCCCUCGGUAAUGGCGAAUGGGACCCA	0.491
GGCCGUCAUGGUCCCAGCCUCCUCGCUGGCGCCGGCUGGGCAACAUUCCGAGCGGACCGUCCCCUCGGUAAUGGCGAAUGGGACCCA	0.494
GGCCGGCAUGGUCCCAGCCUCCUCGCUGGCGGCGGCUGGGCAGCAUUCCGAGGGGACCGUCCCCUCGGUAAUGGCGAAUGGGACCCA	0.0489
GGCCGGCAUGGUCCCAGCCUCCUUGCUGGCGCCGGCUGGGCAACAUUCCGAGGGGACCGUCCCCUCGGUAAUGGCGGAUGGGACCCA	0.53
